For data set [1], the system named is M.SssI Q142A (DNA cytosine-C5 methyltransferase) Q142A (Spiroplasma sp.?). Particulars: natural cofactor AdoMet; R.BstUI protection assay, 37 C; analogs 5: 1.2, 7: 0.6.
In data set [2] the test system is M.BcnIB (DNA cytosine-N4 methyltransferase). Particulars: natural cofactor AdoMet; R.BcnI protection assay, 37 C; analogs 3-5: <7, 6: 0, 7: 28, 8: 14.
For data set [3], the target named is M.TaqI (DNA adenine-N6 methyltransferase) (UniProt P14385). Particulars: natural cofactor AdoMet; R.TaqI protection assay, 60 C 4 h; analogs 3: 10, 4: <5, 5: 80, 6: 10, 7: 1280, 8: 640, 9: 640; cofactor 10: 11 u/ug (1 h).
In the next data set the test system is M.TaqI V21G V21G. Particulars: natural cofactor AdoMet; R.TaqI protection assay; analogs 3: 5, 4: <5, 5: 640, 6: 20, 7: 80, 8: 80, 9: 2560.
The next data set deals with T1, M.HhaI Q82A Q82A (UniProt P05102).
T1 sequence: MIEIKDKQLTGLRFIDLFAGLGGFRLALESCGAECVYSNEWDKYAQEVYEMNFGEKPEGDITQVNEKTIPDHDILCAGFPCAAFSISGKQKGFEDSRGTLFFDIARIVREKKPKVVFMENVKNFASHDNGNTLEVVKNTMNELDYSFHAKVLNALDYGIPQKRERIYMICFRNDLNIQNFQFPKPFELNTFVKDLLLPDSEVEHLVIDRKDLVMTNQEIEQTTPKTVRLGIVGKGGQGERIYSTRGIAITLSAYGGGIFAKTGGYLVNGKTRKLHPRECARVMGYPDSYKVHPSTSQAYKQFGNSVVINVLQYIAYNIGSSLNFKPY
The settings on record: natural cofactor AdoMet; R.Hin6I protection assay; analogs 3: 7, 4: 0, 5: 29, 6: <4, 7: 58, 8: <4.

Data set [4] has as its system M.HhaI (DNA cytosine-C5 methyltransferase). Particulars: natural cofactor AdoMet; R.Hin6I protection assay, 37 C; analogs 3: <4, 4: 0, 5: 7, 6: <4, 7: 29, 8: <4.

Activity data for one substance are collected here from patent US20090018101.

Sequence of M.TaqI (DNA adenine-N6 methyltransferase) (P14385 whole entry): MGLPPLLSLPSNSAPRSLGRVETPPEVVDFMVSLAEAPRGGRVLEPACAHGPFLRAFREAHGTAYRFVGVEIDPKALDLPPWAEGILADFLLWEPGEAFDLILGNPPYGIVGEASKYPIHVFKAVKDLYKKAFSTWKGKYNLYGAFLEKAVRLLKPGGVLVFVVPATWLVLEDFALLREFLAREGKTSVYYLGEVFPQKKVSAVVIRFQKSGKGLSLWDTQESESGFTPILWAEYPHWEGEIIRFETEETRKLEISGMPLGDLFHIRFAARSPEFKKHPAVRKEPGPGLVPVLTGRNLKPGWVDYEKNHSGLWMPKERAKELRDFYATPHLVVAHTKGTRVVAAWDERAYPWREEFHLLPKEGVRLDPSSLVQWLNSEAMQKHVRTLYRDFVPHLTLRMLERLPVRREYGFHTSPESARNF

Take phage lambda DNA (48502 bp): the activity in data set [1] stood at 20 u/µg; in data set [2] it was 444 u/µg; in data set [3] it was 41000 u/µg; in the data set on M.TaqI V21G V21G it was 320 u/µg; with M.HhaI Q82A Q82A it was 115 u/µg; in data set [4] it was 460 u/µg.
